From patent US9061070B2, “Treating stroke and other diseases without inhibiting N-type calcium channels” (NoNO, Inc., priority 2007, dated 2015)
Where two headings read alike, the source gives them in different places. Where no end group is shown, it is not given here. [ ]: non-standard residue; d: D form. Tle = CC(C)(C)[C@H](N)C(=O)O; Nva = CCC[C@H](N)C(=O)O

Legend:
N-type calcium channels = N-type calcium channels (Mus musculus, UniProt O55017); experiment: Whole-cell patch clamp recordings of calcium currents in dorsal root ganglion neurons; format: cell-based, Swiss mice
[1] = cited from earlier work
[2] = system: pial 3 vessel occlusion (P3VO) model of stroke; experiment: Pial vessel occlusion (P3VO) model of permanent ischemia; format: in vivo, Sprague Dawley rats; settings: for reduction of infarct size: single dose 3 nmol/g one hour after initiating ischemia, FIG. 3
MCAO model of stroke = settings: previously tested; cited from earlier work
N-type Ca channels = N-type Ca channels (Homo sapiens, UniProt Q00975); format: binding; settings: 10 μM peptide
[3] = peptide at 100 μM, mean+/-s.e.m., DRG neurons
[4] = 3 nMol/g i.v. one hour after occlusion, 24 h, FIG. 8

Sequence of N-type calcium channels (O55017 whole entry): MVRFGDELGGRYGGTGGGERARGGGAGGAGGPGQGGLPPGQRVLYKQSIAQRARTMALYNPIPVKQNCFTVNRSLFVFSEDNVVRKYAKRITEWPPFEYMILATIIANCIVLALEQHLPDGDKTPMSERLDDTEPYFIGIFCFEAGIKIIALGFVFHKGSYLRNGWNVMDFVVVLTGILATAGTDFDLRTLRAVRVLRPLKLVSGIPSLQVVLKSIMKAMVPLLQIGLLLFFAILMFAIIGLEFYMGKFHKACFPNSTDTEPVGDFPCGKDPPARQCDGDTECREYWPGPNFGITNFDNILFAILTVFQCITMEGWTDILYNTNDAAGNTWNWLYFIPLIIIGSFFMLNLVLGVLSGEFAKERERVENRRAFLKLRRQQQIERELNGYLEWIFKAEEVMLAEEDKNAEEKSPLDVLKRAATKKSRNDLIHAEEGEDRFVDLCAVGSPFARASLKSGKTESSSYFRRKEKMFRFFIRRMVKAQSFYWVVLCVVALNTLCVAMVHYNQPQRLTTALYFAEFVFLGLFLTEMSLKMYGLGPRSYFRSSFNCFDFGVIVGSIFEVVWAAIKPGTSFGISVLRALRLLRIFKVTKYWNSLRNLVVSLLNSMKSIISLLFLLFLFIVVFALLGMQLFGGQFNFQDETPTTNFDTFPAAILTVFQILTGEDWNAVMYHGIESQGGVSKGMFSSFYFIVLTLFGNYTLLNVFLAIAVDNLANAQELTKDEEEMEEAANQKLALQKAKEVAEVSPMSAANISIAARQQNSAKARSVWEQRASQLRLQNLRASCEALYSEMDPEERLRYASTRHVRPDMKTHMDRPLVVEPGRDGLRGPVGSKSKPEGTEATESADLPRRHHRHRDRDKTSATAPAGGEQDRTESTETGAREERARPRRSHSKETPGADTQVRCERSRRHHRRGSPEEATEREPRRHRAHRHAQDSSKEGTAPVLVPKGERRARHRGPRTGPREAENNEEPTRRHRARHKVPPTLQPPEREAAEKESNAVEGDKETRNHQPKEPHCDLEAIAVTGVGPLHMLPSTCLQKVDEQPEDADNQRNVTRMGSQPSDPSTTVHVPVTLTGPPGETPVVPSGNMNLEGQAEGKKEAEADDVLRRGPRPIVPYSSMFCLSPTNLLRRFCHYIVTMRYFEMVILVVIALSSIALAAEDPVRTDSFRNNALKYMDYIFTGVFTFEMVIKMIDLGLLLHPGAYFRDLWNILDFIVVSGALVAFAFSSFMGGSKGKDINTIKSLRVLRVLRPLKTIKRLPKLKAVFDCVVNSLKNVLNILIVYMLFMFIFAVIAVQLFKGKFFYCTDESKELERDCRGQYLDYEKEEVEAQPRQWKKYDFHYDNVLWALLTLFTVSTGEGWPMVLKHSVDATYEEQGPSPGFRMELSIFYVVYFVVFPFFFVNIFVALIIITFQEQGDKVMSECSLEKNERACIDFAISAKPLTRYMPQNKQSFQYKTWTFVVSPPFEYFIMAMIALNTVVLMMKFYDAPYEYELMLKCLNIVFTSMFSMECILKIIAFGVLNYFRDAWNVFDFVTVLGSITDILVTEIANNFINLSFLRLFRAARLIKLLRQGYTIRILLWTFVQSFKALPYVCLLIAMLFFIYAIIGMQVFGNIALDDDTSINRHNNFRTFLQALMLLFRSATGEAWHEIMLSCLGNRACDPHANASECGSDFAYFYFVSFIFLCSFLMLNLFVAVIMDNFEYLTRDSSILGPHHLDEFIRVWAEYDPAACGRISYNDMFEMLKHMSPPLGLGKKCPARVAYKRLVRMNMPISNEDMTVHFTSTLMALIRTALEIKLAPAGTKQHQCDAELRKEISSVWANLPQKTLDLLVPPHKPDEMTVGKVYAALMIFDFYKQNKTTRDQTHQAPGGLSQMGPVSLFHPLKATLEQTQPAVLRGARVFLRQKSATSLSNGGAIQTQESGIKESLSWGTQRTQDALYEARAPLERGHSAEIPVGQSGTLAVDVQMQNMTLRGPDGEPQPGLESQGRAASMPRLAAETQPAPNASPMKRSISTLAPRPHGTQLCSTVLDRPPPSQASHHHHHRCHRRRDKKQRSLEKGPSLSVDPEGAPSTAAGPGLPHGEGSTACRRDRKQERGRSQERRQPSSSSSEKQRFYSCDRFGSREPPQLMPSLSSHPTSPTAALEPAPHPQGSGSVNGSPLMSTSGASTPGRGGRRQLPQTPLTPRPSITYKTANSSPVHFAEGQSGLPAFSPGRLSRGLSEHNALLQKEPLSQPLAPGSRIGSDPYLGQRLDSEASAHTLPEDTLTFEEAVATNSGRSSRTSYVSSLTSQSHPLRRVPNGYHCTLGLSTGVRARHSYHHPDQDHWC
Sequence of N-type calcium channels (O08532 25-956 partner limits assumed): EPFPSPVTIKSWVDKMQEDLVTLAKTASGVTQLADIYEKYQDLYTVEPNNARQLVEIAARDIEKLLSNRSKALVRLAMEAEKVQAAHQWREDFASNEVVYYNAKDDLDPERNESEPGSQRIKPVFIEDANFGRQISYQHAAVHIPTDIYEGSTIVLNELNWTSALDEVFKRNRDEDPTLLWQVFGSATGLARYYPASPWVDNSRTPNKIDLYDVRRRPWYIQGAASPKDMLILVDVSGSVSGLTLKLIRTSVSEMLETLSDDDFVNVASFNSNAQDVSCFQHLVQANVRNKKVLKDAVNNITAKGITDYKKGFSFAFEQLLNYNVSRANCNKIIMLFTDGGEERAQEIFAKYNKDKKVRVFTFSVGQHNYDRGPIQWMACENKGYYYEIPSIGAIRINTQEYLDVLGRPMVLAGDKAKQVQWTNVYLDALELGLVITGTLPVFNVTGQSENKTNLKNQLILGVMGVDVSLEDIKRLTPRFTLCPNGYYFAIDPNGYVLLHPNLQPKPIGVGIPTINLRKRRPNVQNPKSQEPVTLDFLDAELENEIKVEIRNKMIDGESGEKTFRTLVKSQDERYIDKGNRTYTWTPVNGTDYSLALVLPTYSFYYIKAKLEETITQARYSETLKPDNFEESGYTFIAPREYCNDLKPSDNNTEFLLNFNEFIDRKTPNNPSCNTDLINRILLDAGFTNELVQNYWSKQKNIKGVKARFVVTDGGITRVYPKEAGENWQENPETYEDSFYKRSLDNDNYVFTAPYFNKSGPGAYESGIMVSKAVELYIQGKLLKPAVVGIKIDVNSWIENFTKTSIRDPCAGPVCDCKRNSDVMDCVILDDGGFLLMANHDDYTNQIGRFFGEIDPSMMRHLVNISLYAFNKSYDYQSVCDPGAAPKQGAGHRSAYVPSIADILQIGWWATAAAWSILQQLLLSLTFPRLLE
Sequence of N-type calcium channels (O08532 957-1103 partner limits assumed): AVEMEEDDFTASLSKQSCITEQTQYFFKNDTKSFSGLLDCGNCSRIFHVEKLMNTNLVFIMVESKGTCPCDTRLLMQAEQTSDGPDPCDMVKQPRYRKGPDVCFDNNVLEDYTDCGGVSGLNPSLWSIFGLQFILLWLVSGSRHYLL
Sequence of N-type calcium channels (P54285 whole entry partner): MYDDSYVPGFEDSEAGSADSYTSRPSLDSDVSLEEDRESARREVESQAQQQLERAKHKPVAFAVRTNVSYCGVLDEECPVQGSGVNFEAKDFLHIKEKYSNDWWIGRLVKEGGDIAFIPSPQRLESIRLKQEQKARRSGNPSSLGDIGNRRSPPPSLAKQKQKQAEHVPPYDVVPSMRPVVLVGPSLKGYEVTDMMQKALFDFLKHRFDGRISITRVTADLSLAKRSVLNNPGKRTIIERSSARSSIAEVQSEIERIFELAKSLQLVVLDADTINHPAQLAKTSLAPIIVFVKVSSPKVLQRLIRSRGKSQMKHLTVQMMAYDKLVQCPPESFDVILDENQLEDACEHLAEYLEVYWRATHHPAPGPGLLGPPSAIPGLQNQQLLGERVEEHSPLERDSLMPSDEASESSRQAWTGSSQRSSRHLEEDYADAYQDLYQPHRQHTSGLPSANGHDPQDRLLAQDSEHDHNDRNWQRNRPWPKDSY

1987: D-isomer of Tat-NR2B9c ([dY]G[dR][dK][dK][dR][dR][dQ][dR][dR][dR][dA][dL][dS][dS][dI][dE][dS][dD][dV]) [Peptide 1987]
Ca2+ current shown as a percentage (normalized to current before peptide) (N-type calcium channels): 82+/−2.2%
inhibition of N-type calcium channel activity (in words) (N-type calcium channels): significant improvement in channel activity over TAT alone although still displayed some reduction

N[C@@H](Cc1ccc(O)c(O)c1)C(=O)O [Levodopa]
halflife [1]: halflife = 1.5 hrs

CC[C@H](C)C(=O)O[C@H]1C[C@H](O)C=C2C=C[C@H](C)[C@H](CC[C@@H](O)C[C@@H](O)CC(=O)O)[C@H]21 [Pravachol ® (pravastatin), pravastatin]
bioavailability [1]: efficacy, low

NCCCC[C@H](N[C@@H](CCc1ccccc1)C(=O)O)C(=O)N1CCC[C@H]1C(=O)O [Prinivil ® (lininopril), lininopril]
halflife [1]: crossing, 12 hr

FGRKKRRQRRRALSSIESDV (also: fluorescent label, place not given here (F-Tat-NR2B9c)) [Peptide 1995]
Ca2+ current shown as a percentage (normalized to current before peptide) (N-type calcium channels; [3]): 97+/−0.2%

FGRKKRRQRRRKLSSIESDV (also: fluorescent label, place not given here (F-Tat-NR2B9c)) [Peptide 1993]
reduction of infarct size [2]: equally effective in reducing infarct size
inhibition of N-type calcium channel activity (in words) (N-type calcium channels; FIG. 2, peptide at 100 μM): no significant inhibition
Ca2+ current shown as a percentage (normalized to current before peptide) (N-type calcium channels; [3]): 91+/−1.6%

KLSSIESDV (Synthetic active peptide - 1991 2B9c) [Peptide 1991]
inhibition of N-type calcium channel activity (in words) (N-type calcium channels; FIG. 2, peptide at 100 μM): no significant inhibition
Ca2+ current shown as a percentage (normalized to current before peptide) (N-type calcium channels; [3]): 94+/−1.7%

YGRKKRRQRRR [Peptide 1990, reference compound]
Ca2+ current shown as a percentage (normalized to current before peptide) (N-type calcium channels): 57+/−1.6%

YGRKKRRQRRRALSSIESDV (Synthetic peptide - 1994 Tat-NR2B9c K to A) [Peptide 1994]
inhibition of N-type calcium channel activity (in words) (N-type calcium channels; FIG. 2, peptide at 100 μM): significant improvement in channel activity over TAT alone although still displayed some reduction
inhibition of N-type calcium channel activity (in words) (N-type calcium channels; FIG. 2, peptide at 100 μM, listed as 1994 Tat-NR2B9c K to A): no significant inhibition
Ca2+ current shown as a percentage (normalized to current before peptide) (N-type calcium channels; [3]): 77+/−1.8%

YGRKKRRQRRRKLSSIEADA (Synthetic peptide - 1992 Tat-NR2B9c-AA) [Peptide 1992]
inhibition of N-type calcium channel activity (in words) (N-type calcium channels; FIG. 2, peptide at 100 μM): significant improvement in channel activity over TAT alone although still displayed some reduction
Ca2+ current shown as a percentage (normalized to current before peptide) (N-type calcium channels; [3]): 74+/−2.4%

YGRKKRRQRRRKLSSIESDV [Tat-NR2B9c, reference compound]
neuroprotection, infarct size (MCAO model of stroke): neuroprotective as seen by a reduced infarct size
infarct size (percent of hemisphere) [2, 4]: significantly decreased infarct sizes
reduction of infarct size [2]: equally effective in reducing infarct size
inhibition of radiolabeled ω-Conotoxin GVIA binding to N-type Ca channels (N-type Ca channels): 100%
frequency (use) dependence of block of Ca2+ currents (N-type calcium channels; 100 μM, 0.07, 10, 20, 50 Hz, FIG. 6): not frequency dependent
Ca2+ current shown as a percentage (normalized to current before peptide) (N-type calcium channels; [3]): 68+/−1.7%
voltage dependence of inhibition of Ca2+ current (N-type calcium channels; steps from −40 to +50 mV, FIG. 7): independent of voltage

YGRKKRRQRRRKLSSIESDX (YGRKKRRQRRRKLSSIESD[Nva]) [Peptide 1976]
infarct size (percent of hemisphere) [2, 4]: significantly decreased infarct sizes

YGRKKRRQRRRKLSSIESDX [1976] (YGRKKRRQRRRKLSSIESD[Nva]) [Peptide 1976]
Ca2+ current shown as a percentage (normalized to current before peptide) (N-type calcium channels; [3]): 66+/−3.4%

YGRKKRRQRRRKLSSIESDX [1977] (YGRKKRRQRRRKLSSIESD[Tle]) [Peptide 1977]
Ca2+ current shown as a percentage (normalized to current before peptide) (N-type calcium channels; [3]): 65+/−5.1%

YGRKKRRQRRRKLSSIETDX (YGRKKRRQRRRKLSSIETD[Nva]) [Peptide 1975]
infarct size (percent of hemisphere) [2, 4]: some reduction in infarct size

YGRKKRRQRRRKLSSIEXDV (YGRKKRRQRRRKLSSIE[L‑2‑amino‑3‑ureidopropionic acid]DV) [Peptide 1978]
infarct size (percent of hemisphere) ([2]; rat, in vivo, iv): some reduction in infarct size
